This data set addresses T1, AtJUB1-GST (Arabidopsis thaliana, UniProt Q9SK55 1-275).
T1 sequence: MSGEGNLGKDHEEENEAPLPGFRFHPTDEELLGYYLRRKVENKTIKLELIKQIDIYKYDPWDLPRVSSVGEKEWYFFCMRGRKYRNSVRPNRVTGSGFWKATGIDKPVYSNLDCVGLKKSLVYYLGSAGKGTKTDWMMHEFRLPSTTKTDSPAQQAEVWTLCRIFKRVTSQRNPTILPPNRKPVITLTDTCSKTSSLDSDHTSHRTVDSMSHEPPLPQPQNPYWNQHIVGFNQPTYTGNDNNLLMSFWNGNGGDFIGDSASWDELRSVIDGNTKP
The data set is described as follows: EMSA; abolished by 100x unlabelled competitor; Odyssey Infrared EMSA kit (LI-COR); buffer, salt, pH and temperature not stated. The settings on record: protein: recombinant; tags: GST (pDEST24 fusion); chain copies: 2; label: 5'-DY682; blunt.

These results are taken from article PMC5787828, “NAC transcription factor JUNGBRUNNEN1 enhances drought tolerance in tomato”.

B1: SlDREB1 promoter probe (dsDNA)
DNA 1: TTATTTAGTCGAGTCGTGGCTGTTGGGATGCCGCGGAATTCAGCACGTG
DNA 2: CACGTGCTGAATTCCGCGGCATCCCAACAGCCACGACTCGACTAAATAA
Take B1: the binding result is recorded as “binds”.

B2: SlDREB2 promoter probe (dsDNA)
DNA 1: TATATGGCTGTGCTTGATCGAACTTCAAATATGATGTTACCTATGGATTA
DNA 2: TAATCCATAGGTAACATCATATTTGAAGTTCGATCAAGCACAGCCATATA
For the molecule B2, the binding result is on record as “binds”.

B3: SlDELLA promoter probe (dsDNA)
DNA 1: ATTTTTCACACTTGACCACCACCACTTTTACTTGCCCTACTAAATCTAAA
DNA 2: TTTAGATTTAGTAGGGCAAGTAAAAGTGGTGGTGGTCAAGTGTGAAAAAT
Turning to B3, the binding result was “binds”.
